Measured values published in patent publication US20140080161A1, “PHOSPHATASE COUPLED KINASE ASSAY” (RESEARCH AND DIAGNOSTIC SYSTEMS, INC., priority 2010, published 2014).

Experiments:
[1] = Coupling efficiency: ADP hydrolysis in presence versus absence of ATP; assay type: biochemical; conditions: for Slope of ADP Hydrolysis Curve (Si): 0.2 μg rhCD39L2, 20 minutes
Source text: The coupling efficiency of a phosphatase may be determined by measuring the rates of ADP hydrolysis in the presence of ATP, and in the absence of ATP, under conditions which are otherwise the same. The coupling efficiency is the ratio of the ADP hydrolysis rate in the presence of ATP to the ADP hydrolysis rate in the absence of ATP. As exemplified in Example 3 (FIG. 4), the coupling efficiency in the presence of i mM of ATP, Ci, is equal to the ratio of the slope of the corresponding ADP hydrolysis curve in the presence of i mM of ATP, Si, to the slope of the ADP hydrolysis curve in the absence of ATP, So. The coupling efficiency may be characterized by the following formula: […]
The coupling efficiency will vary depending upon the concentration of ATP. As such, the Ci may be calculated at various ATP concentrations and the results may be plotted to give a curve of coupling efficiency versus ATP concentration. In this way, the coupling efficiency may be determined for any concentration of ATP, such as the beginning concentration of ATP used in a reaction. The coupling efficiency can be obtained once the conditions for a kinase reaction are determined and may then be used to adjust the final measured kinase activity depending upon the ATP concentration. For example, the final measured ADP production may be divided by the coupling efficiency (assuming that the ATP concentration throughout the reaction is approximately constant) in order to calculate the actual ADP production. The coupling efficiency allows for measuring the kinase activity even at high levels of ATP, such as at intracellular ATP concentration levels, about 1 mM, which may be most biologically relevant for some reactions.
This experiment measured the coupling efficiency of CD39L2, which was the ratio of the rate of ADP hydrolysis in the presence of ATP to the rate of ADP hydrolysis in the absence of ATP, under conditions which were otherwise identical. In a series of reactions, increasing amounts of ADP (0 to 15 nmol, within the coupling capacity) were hydrolyzed with 0.2 μg of rhCD39L2 in the presence of various concentrations of ATP (0, 0.156, 0.312, 0.625, 1.25, 2.5, or 5 mM). The reactions were stopped after 20 minutes and the Malachite Green assay was performed and OD readings were taken at 620 nm.
Coupling efficiency in the presence of i mM of ATP (Ci) was determined from the ratio of the slope of the ADP hydrolysis curve in the presence of i mM ATP (Si) to the slope of the ADP hydrolysis curve in the absence of ATP (S0) according to Equation 1. For each concentration of ATP, Ci was calculated. […] The coupling efficiency may then be used to correct the data obtained for any competitive inhibition that might be caused by the ATP, especially at high concentrations of ATP.

[2] = Coupling capacity of the phosphatase (ADP completely hydrolyzed); assay type: biochemical; conditions: 0.2 μg phosphatase
Source text: Phosphatases useful in embodiments of the invention are preferably able to completely hydrolyze all of the ADP generated in a kinase reaction. The amount of complete hydrolysis which can be performed by a phosphatase under a set of reaction conditions may be characterized as the coupling capacity of the phosphatase. As such, the coupling capacity represents the amount of ADP that can be completely hydrolyzed by a given amount of a phosphatase under specific conditions. Coupling capacity may be determined by performing a series of reactions, combining a set amount of phosphatase with increasing amounts of ADP. The reactions may be performed for various lengths of time, with different coupling capacities as a result. The desired reaction time and amount of phosphatase to be used in kinase reactions can then be selected such that the corresponding coupling capacity is greater than the anticipated amount of ADP produced in the kinase reaction. Coupling capacity can be determined as the maximum amount of ADP that is completely hydrolyzed by a given amount of phosphatase in FIG. 3. […] At this level of ADP production, the amount of phosphatase is therefore adequate. However, as the level of ADP produced increases beyond the capacity for a given amount of phosphatase, hydrolysis may not be complete. At this point, coupling capacity is not adequate for the ADP production during a kinase reaction, and the hydrolysis curve diverges and falls below the phosphate standard curve. […]
In order to provide a measurement of kinase activity, the phosphatase needs to be able to completely hydrolyze all ADP generated by the kinase reaction. In this example, the coupling capacity was determined by performing three series of reactions combining 0.2 μg rhCD39L2 with increasing amounts of ADP (3.125, 6.25, 12.5, 25, 50, and 100 nmols), with each series of reactions allowed to run for various lengths of time 10, 20 or 40 minutes. The reactions were stopped and free phosphate was measured using the Malachite Green assay as described above. […]

B1: rhCD39L2: recombinant human CD39L2, nucleotide phosphatase preferring ADP over ATP, used for coupling (protein, UniProt O75354 1-484, looked up)
Ectonucleoside triphosphate …: MKKGIRYETSRKTSYIFQQPQHGPWQTRMRKISNHGSLRVAKVAYPLGLCVGVFIYVAYIKWHRATATQAFFSITRAAPGARWGQQAHSPLGTAADGHEVFYGIMFDAGSTGTRVHVFQFTRPPRETPTLTHETFKALKPGLSAYADDVEKSAQGIRELLDVAKQDIPFDFWKATPLVLKATAGLRLLPGEKAQKLLQKVKKVFKASPFLVGDDCVSIMNGTDEGVSAWITINFLTGSLKTPGGSSVGMLDLGGGSTQIAFLPRVEGTLQASPPGYLTALRMFNRTYKLYSYSYLGLGLMSARLAILGGVEGQPAKDGKELVSPCLSPSFKGEWEHAEVTYRVSGQKAAASLHELCAARVSEVLQNRVHRTEEVKHVDFYAFSYYYDLAAGVGLIDAEKGGSLVVGDFEIAAKYVCRTLETQPQSSPFSCMDLTYVSLLLQEFGFPRSKVLKLTRKIDNVETSWALGAIFHYIDSLNRQKSPAS
[1]; 0.2 mM ATP, based on data of Example 3
  coupling efficiency: 0.9
[1]; 2 mM ATP, based on data of Example 3
  coupling efficiency: 0.51
[1]; 4 mM ATP, predicted from data of Example 3 (FIG. 5)
  coupling efficiency: 0.4
[1]; ATP 0 mM
  Coupling Efficiency (Ci): 1.00
  Slope of ADP Hydrolysis Curve (Si): 0.280
[1]; ATP 0.156 mM
  Coupling Efficiency (Ci): 0.97
  Slope of ADP Hydrolysis Curve (Si): 0.271
[1]; ATP 0.312 mM
  Coupling Efficiency (Ci): 0.74
  Slope of ADP Hydrolysis Curve (Si): 0.207
[1]; ATP 0.625 mM
  Coupling Efficiency (Ci): 0.61
  Slope of ADP Hydrolysis Curve (Si): 0.170
[1]; ATP 1.25 mM
  Coupling Efficiency (Ci): 0.56
  Slope of ADP Hydrolysis Curve (Si): 0.157
[1]; ATP 2.50 mM
  Coupling Efficiency (Ci): 0.48
  Slope of ADP Hydrolysis Curve (Si): 0.134
[1]; ATP 5.0 mM
  Coupling Efficiency (Ci): 0.34
  Slope of ADP Hydrolysis Curve (Si): 0.096
[2]; 10 minute reaction
  coupling capacity: 10 nmole of ADP
[2]; 20 minute reaction
  coupling capacity: 20 nmole of ADP
[2]; 40 minute reaction
  coupling capacity: 100 nmole of ADP
